Test [1] has as its target sapC-PUMA chimera (saposin C linked to the BH3 domain of PUMA). Nature of the test: NMR titration; [1H-15N]-SOFAST-HMQC at 298 K, 600 MHz; 15N-labelled chimera at 100 µM mixed with unlabeled Bcl-xL-ΔTM (stock 900 µM, pH 6.8) at chimera:Bcl-xL molar ratios 1:0, 1:0.5, 1:1, 1:2; 10% D2O; slow exchange, the upper limit of KD estimated from the chemical shift difference assuming diffusion-controlled kon.

The next test concerns the target Bcl-xL (Homo sapiens) (UniProt Q07817). Kind of test: isothermal titration calorimetry. The following applies: cited from earlier work.

These results are taken from paper PMC8072984.

Sequence of sapC-PUMA chimera (saposin C linked to the BH3 domain of PUMA) (P07602 other isoform, or with tags, fused parts or gaps mutant): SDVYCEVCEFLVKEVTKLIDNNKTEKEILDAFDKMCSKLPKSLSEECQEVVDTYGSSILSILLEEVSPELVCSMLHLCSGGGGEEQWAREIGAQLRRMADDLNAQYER
Sequence of Bcl-xL (Homo sapiens) (Q07817 whole entry): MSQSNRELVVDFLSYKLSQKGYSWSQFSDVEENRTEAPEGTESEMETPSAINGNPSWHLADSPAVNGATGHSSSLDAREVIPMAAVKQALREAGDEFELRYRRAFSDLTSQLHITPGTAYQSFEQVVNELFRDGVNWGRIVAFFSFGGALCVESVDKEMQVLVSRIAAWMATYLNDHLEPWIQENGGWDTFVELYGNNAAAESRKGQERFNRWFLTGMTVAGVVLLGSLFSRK
Sequence of PUMA BH3 (Q9BXH1 130-156): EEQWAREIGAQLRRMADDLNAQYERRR

With “Human Bcl-xL-ΔTM (native amino acid sequence without the transmembrane domain) (domain or fragment)”, the stoichiometry N in test [1] is 1. Take PUMA BH3 (from UniProt Q9BXH1): in the test with Bcl-xL (Homo sapiens), the dissociation constant (Kd) was 3 nM.
